Assay results published in publication doi:10.1101/2021.01.27.428421.

Target: tdPCP-GFP-VPR (PP7 (from the protein's name) | not stated)
Test: fluorescence intensity at the reporter gene array in cells

Substance: tdPCP-GFP-VPR
- fold signal at the reporter array against tdPCP-GFP-VP16: 1.9 fold
